B1: GST-p107 R1R2 [not stated] / B55α (PP2A regulatory subunit B55α), endogenous in U-2 OS cells [human (endogenous in U-2 OS)] (parent)
chain 1: KVPTCEEVIFPNNFETGNGGNVQGHLPLMPMSPLMHPRVKEVRTDSGSLRRDMQPLSPISVHERYSSPTAGSAKRRLF
chain 2: MAGAGGGNDIQWCFSQVKGAVDDDVAEADIISTVEFNHSGELLATGDKGGRVVIFQQEQENKIQSHSRGEYNVYSTFQSHEPEFDYLKSLEIEEKINKIRWLPQKNAAQFLLSTNDKTIKLWKISERDKRPEGYNLKEEDGRYRDPTTVTTLRVPVFRPMDLMVEASPRRIFANAHTYHINSISINSDYETYLSADDLRINLWHLEITDRSFNIVDIKPANMEELTEVITAAEFHPNSCNTFVYSSSKGTIRLCDMRASALCDRHSKLFEEPEDPSNRSFFSEIISSISDVKFSHSGRYMMTRDYLSVKIWDLNMENRPVETYQVHEYLRSKLCSLYENDCIFDKFECCWNGSDSVVMTGSYNNFFRMFDRNTKRDITLEASRENNKPRTVLKPRKVCASGKRKKDEISVDSLDFNKKILHTAWHPKENIIAVATTNNLYIFQDKVN

Variants of: B1
Test: GST pull-down, western blot
Conditions: with B55α (PP2A regulatory subunit B55α), U2-OS lysates, triplicate, read off a plot

| Variant | ratio to parent |
| --- | --- |
| chain 1 KVPTCEEVIFPNNFETGNGGNVQGHLPLMPMSPLMHPRVKEVRTDSGSLRRDMQPLSPISVHEAYSSPTAGSAKRRLF | 0.57 |

— paper PMC8575462, “PP2A/B55α substrate recruitment as defined by the retinoblastoma-related protein p107” (eLife, 2021)
